Data on 44 variants can be found in the supplement of paper PMC12783771.

B1: library; numbered along this chain (parent)
chain: MNIQIGELAKRTACPVVTIRFYEQEGLLPPPGRSRGNFRLYGEEHVERLQFIRHCRSLDMPLSDVRTLLSYRKRPDQDCGEVNMLLDEHIRQVESRIGALLELKHHLVELREACSGARPAQSCGILQGLSDCVCDTRGTTAHPSD

The variants in series [1] derive from B1. The series is described as follows: sfGFP reporter fluorescence (15 h) (µM FITC); higher = higher leak. Particulars: library round: Round 0; ligand: none. A digest of the protocol:
(§1)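 PCR-made linear PbrR templates (Echo-normalized to 5 nM) were expressed in BL21 Star (DE3) extract (PANOx-SP) with pPbrR-sfGFP reporter plasmid and 30 μg/mL GamS. Reactions were 1 μL, Echo-assembled, with 1 µM lead chloride, 30 µM zinc acetate or no metal, incubated 15 hr at 30 °C. Endpoint sfGFP fluorescence (485/528 nm, Synergy Neo2) was converted to µM FITC via standard curves in 50 mM sodium borate pH 8.5. Up to three biological replicates.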

The variants in series [2] derive from B1. Kind of series: sfGFP reporter fluorescence (15 h) (µM FITC); higher = stronger transcriptional activation. The note with it: library round: Round 0. A digest of the protocol: as §1

± gives the standard deviation of the averaged measurements.

As to L103A, the sfGFP reporter fluorescence in series [1] was found to be 0.0629 ± 0.0013; in series [2] (ligand: 1 µM Pb) it was 0.06945 ± 0.00026; in series [2] (ligand: 30 µM Zn), 0.918 ± 0.037.

For the variant G36E, the sfGFP reporter fluorescence in series [1] amounted to 0.05992 ± 0.00026; in series [2] (ligand: 1 µM Pb) it was 0.0618 ± 0.0018; in series [2] (ligand: 30 µM Zn), 0.115 ± 0.0098.

As to G36Q, the sfGFP reporter fluorescence in series [1] was 0.0592 ± 0.0029; in series [2] (ligand: 1 µM Pb), 0.0676 ± 0.0023; in series [2] (ligand: 30 µM Zn) it was 0.3562 ± 0.0026.

In the case of G36L, the figures for the sfGFP reporter fluorescence in series [1], in series [2] (ligand: 1 µM Pb) and in series [2] (ligand: 30 µM Zn) were 0.0588 ± 0.00078, 0.0621 ± 0.00078 and 0.114 ± 0.011, respectively.

Take M60L P61N G128I: the sfGFP reporter fluorescence in series [1] was determined as 0.436 ± 0.043; in series [2] (ligand: 1 µM Pb), 1.55 ± 0.032; in series [2] (ligand: 30 µM Zn) it was 3.7563 ± 0.0021.

Regarding V46G, the values for the sfGFP reporter fluorescence in series [1], in series [2] (ligand: 1 µM Pb) and in series [2] (ligand: 30 µM Zn) were 0.05498 ± 0.00052, 0.059 ± 0.0021 and 0.106 ± 0.013, respectively.

In the case of V46I, the values for the sfGFP reporter fluorescence in series [1], in series [2] (ligand: 1 µM Pb) and in series [2] (ligand: 30 µM Zn) were 0.0548 ± 0.006, 0.0711 ± 0.0062 and 0.831 ± 0.17, respectively.

For C55K, the sfGFP reporter fluorescence in series [1] was determined as 0.0608 ± 0.0015; in series [2] (ligand: 1 µM Pb), 0.061 ± 0.0018; in series [2] (ligand: 30 µM Zn) it was 0.0607 ± 0.00078.

On to C55W, for which the sfGFP reporter fluorescence came to 0.0731 ± 0.0029 in series [1], 0.0935 ± 0.0015 in series [2] (ligand: 1 µM Pb) and 0.136 ± 0.0083 in series [2] (ligand: 30 µM Zn).

In the case of C55V, the sfGFP reporter fluorescence in series [1] worked out at 0.0629 ± 0.0029; in series [2] (ligand: 1 µM Pb), 0.0773 ± 0.0047; in series [2] (ligand: 30 µM Zn), 0.273 ± 0.0029.

Take L107E: the sfGFP reporter fluorescence in series [1] came to 0.05882 ± 0.00026; in series [2] (ligand: 1 µM Pb), 0.0746 ± 0.0096; in series [2] (ligand: 30 µM Zn), 0.288 ± 0.054.

Take L107F: the sfGFP reporter fluorescence turned out to be 0.0528 ± 0.0015 in series [1], 0.0495 ± 0.0021 in series [2] (ligand: 1 µM Pb) and 0.0636 ± 0.0039 in series [2] (ligand: 30 µM Zn).

Turning to L107D, the sfGFP reporter fluorescence stood at 0.0586 ± 0.0021 in series [1], 0.0596 ± 0.0018 in series [2] (ligand: 1 µM Pb) and 0.0579 ± 0.0026 in series [2] (ligand: 30 µM Zn).

In the case of I3L, the values for the sfGFP reporter fluorescence in series [1], in series [2] (ligand: 1 µM Pb) and in series [2] (ligand: 30 µM Zn) were 0.0568 ± 0.0057, 0.0722 ± 0.0042 and 0.821 ± 0.0098, respectively.

As for I3V, the sfGFP reporter fluorescence in series [1] was determined as 0.0619 ± 0.001; in series [2] (ligand: 1 µM Pb) it was 0.124 ± 0.0044; in series [2] (ligand: 30 µM Zn), 1.32 ± 0.025.

For E109V, the sfGFP reporter fluorescence was 0.0605 ± 0.0042 in series [1], 0.107 ± 0.0096 in series [2] (ligand: 1 µM Pb) and 1.69 ± 0.1 in series [2] (ligand: 30 µM Zn).

For the variant E109A, the sfGFP reporter fluorescence in series [1] worked out at 0.0636 ± 0.00078; in series [2] (ligand: 1 µM Pb), 0.0804 ± 0.0039; in series [2] (ligand: 30 µM Zn), 0.883 ± 0.35.

Turning to E109I, the sfGFP reporter fluorescence in series [1] is 0.05919 ± 0.00026; in series [2] (ligand: 1 µM Pb) it was 0.108 ± 0.0018; in series [2] (ligand: 30 µM Zn), 1.25 ± 0.29.

H89G: the sfGFP reporter fluorescence in series [1] turned out to be 0.0559 ± 0.0044; in series [2] (ligand: 1 µM Pb) it was 0.05443 ± 0.00026; in series [2] (ligand: 30 µM Zn) it was 0.0577 ± 0.0023.

On to H89P, for which the sfGFP reporter fluorescence worked out at 0.0566 ± 0.0029 in series [1], 0.05498 ± 0.00052 in series [2] (ligand: 1 µM Pb) and 0.0564 in series [2] (ligand: 30 µM Zn).

Turning to H89S, the results for the sfGFP reporter fluorescence in series [1], in series [2] (ligand: 1 µM Pb) and in series [2] (ligand: 30 µM Zn) were 0.0572 ± 0.001, 0.0579 ± 0.0031 and 0.0627 ± 0.001, respectively.

Take P15A: the sfGFP reporter fluorescence in series [1] came out at 0.0674 ± 0.0042; in series [2] (ligand: 1 µM Pb), 0.0953 ± 0.0088; in series [2] (ligand: 30 µM Zn), 0.691 ± 0.02.

Regarding P15M, the sfGFP reporter fluorescence stood at 0.0625 ± 0.0018 in series [1], 0.0795 ± 0.001 in series [2] (ligand: 1 µM Pb) and 0.637 ± 0.02 in series [2] (ligand: 30 µM Zn).

For P15Q, the sfGFP reporter fluorescence was found to be 0.0654 ± 0.00078 in series [1], 0.0903 ± 0.0029 in series [2] (ligand: 1 µM Pb) and 0.9395 ± 0.0039 in series [2] (ligand: 30 µM Zn).

Consider E112G, for which the results for the sfGFP reporter fluorescence in series [1], in series [2] (ligand: 1 µM Pb) and in series [2] (ligand: 30 µM Zn) were 0.0586 ± 0.0026, 0.0847 ± 0.0042 and 1.23 ± 0.12, respectively.

As for E112C, the values for the sfGFP reporter fluorescence in series [1], in series [2] (ligand: 1 µM Pb) and in series [2] (ligand: 30 µM Zn) were 0.0616 ± 0.001, 0.0759 ± 0.0036 and 0.1508 ± 0.0013, respectively.

On to E112P, for which the sfGFP reporter fluorescence in series [1] is 0.0557 ± 0.001; in series [2] (ligand: 1 µM Pb), 0.057 ± 0.00078; in series [2] (ligand: 30 µM Zn), 0.0561.

Consider E112F, for which the sfGFP reporter fluorescence was determined as 0.0575 ± 0.0026 in series [1], 0.0647 ± 0.0023 in series [2] (ligand: 1 µM Pb) and 0.24 ± 0.012 in series [2] (ligand: 30 µM Zn).

For the variant H54A, the values for the sfGFP reporter fluorescence in series [1], in series [2] (ligand: 1 µM Pb) and in series [2] (ligand: 30 µM Zn) were 0.05626 ± 0.00026, 0.0552 ± 0.0029 and 0.07074 ± 0.00052, respectively.

P61R: the figures for the sfGFP reporter fluorescence in series [1], in series [2] (ligand: 1 µM Pb) and in series [2] (ligand: 30 µM Zn) were 0.0715 ± 0.0031, 0.1231 ± 0.00052 and 1.42 ± 0.021, respectively.

With P61A, the sfGFP reporter fluorescence in series [1] was 0.0665 ± 0.00078; in series [2] (ligand: 1 µM Pb), 0.108; in series [2] (ligand: 30 µM Zn), 1.22 ± 0.092.

P61L: the sfGFP reporter fluorescence stood at 0.0638 ± 0.0026 in series [1], 0.0823 ± 0.0039 in series [2] (ligand: 1 µM Pb) and 0.191 ± 0.0057 in series [2] (ligand: 30 µM Zn).

Regarding P61E, the sfGFP reporter fluorescence in series [1] is 0.0693; in series [2] (ligand: 1 µM Pb), 0.0991 ± 0.0049; in series [2] (ligand: 30 µM Zn), 0.338 ± 0.042.

With P61N, the figures for the sfGFP reporter fluorescence in series [1], in series [2] (ligand: 1 µM Pb) and in series [2] (ligand: 30 µM Zn) were 0.07825 ± 0.00026, 0.13 ± 0.078 and 1.74 ± 0.049, respectively.

On to P61F, for which the sfGFP reporter fluorescence was determined as 0.0608 ± 0.0031 in series [1], 0.0651 ± 0.0023 in series [2] (ligand: 1 µM Pb) and 0.09382 ± 0.00052 in series [2] (ligand: 30 µM Zn).

P61Y: the results for the sfGFP reporter fluorescence in series [1], in series [2] (ligand: 1 µM Pb) and in series [2] (ligand: 30 µM Zn) were 0.0638 ± 0.0015, 0.0757 ± 0.0018 and 0.148 ± 0.0023, respectively.

For P61T, the values for the sfGFP reporter fluorescence in series [1], in series [2] (ligand: 1 µM Pb) and in series [2] (ligand: 30 µM Zn) were 0.0865 ± 0.001, 0.211 ± 0.006 and 1.94 ± 0.03, respectively.

I97R: the sfGFP reporter fluorescence stood at 0.0577 ± 0.0054 in series [1], 0.0564 ± 0.0015 in series [2] (ligand: 1 µM Pb) and 0.116 ± 0.0013 in series [2] (ligand: 30 µM Zn).

Regarding R111F, the sfGFP reporter fluorescence worked out at 0.0581 ± 0.00078 in series [1], 0.06927 ± 0.00052 in series [2] (ligand: 1 µM Pb) and 0.328 ± 0.019 in series [2] (ligand: 30 µM Zn).

With R111C, the sfGFP reporter fluorescence is 0.0572 ± 0.0021 in series [1], 0.077 ± 0.0042 in series [2] (ligand: 1 µM Pb) and 0.157 ± 0.0054 in series [2] (ligand: 30 µM Zn).

Turning to D64K G128M, the sfGFP reporter fluorescence in series [1] came to 0.806 ± 0.04; in series [2] (ligand: 1 µM Pb) it was 1.86 ± 0.25; in series [2] (ligand: 30 µM Zn), 4.98 ± 0.34.

For L49A, the results for the sfGFP reporter fluorescence in series [1], in series [2] (ligand: 1 µM Pb) and in series [2] (ligand: 30 µM Zn) were 0.0619 ± 0.001, 0.0614 ± 0.0013 and 0.0969 ± 0.011, respectively.

On to N83T, for which the sfGFP reporter fluorescence in series [1] was 0.0607 ± 0.00078; in series [2] (ligand: 1 µM Pb), 0.0759 ± 0.0015; in series [2] (ligand: 30 µM Zn) it was 0.226 ± 0.047.

Regarding V16Y, the sfGFP reporter fluorescence in series [1] came to 0.0629 ± 0.00078; in series [2] (ligand: 1 µM Pb), 0.0678 ± 0.001; in series [2] (ligand: 30 µM Zn), 0.119 ± 0.0018.
